The target in assay [1] is T1, GST-Dsl1p (Saccharomyces cerevisiae, UniProt P53847).
T1 construct: when introduced into full length GST-Dsl1p; made in house; host or cells: E. coli (BL21DE3 or C41DE3)
T1 sequence (P53847 1-754): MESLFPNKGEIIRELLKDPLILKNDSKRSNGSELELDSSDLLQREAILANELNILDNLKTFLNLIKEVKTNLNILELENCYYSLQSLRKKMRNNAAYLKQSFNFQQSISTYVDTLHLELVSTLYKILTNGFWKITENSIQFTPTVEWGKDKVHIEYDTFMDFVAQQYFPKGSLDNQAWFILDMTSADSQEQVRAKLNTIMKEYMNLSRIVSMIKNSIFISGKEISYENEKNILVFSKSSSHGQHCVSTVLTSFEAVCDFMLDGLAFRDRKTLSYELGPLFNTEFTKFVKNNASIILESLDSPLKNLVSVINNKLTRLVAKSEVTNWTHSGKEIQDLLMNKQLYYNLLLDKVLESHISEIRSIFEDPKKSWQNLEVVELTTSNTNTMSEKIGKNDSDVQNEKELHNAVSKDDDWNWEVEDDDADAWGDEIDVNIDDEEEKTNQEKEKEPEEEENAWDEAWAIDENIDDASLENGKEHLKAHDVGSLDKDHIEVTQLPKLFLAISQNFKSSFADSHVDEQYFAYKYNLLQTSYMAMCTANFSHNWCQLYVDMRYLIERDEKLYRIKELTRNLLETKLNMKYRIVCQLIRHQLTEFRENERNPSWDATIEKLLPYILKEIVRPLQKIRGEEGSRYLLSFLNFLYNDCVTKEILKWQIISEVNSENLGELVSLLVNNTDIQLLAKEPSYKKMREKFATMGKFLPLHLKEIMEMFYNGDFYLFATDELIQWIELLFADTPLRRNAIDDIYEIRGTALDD
The experiment in a line: peptide spot overlay assay: 13-mer δ-COP peptides on cellulose membrane. The class given is binding. The note with it: 13-mer peptides spanning amino acids 191-302 of δ-COP; detection with anti-Dsl1p antibodies. An excerpt:
To further delineate the Dsl1p binding domain in δ-COP 13-mer peptides spanning amino acids 191-302 of δ-COP were synthesized on a cellulose membrane (overlap in sequence by 10 amino acids; Jerini; Berlin, Germany) and probed with to GST-Dsl1p. Anti-Dsllp antibodies were used to detect bound GST-Dsl1p. […] We cannot exclude that peptides from position 248 to 270 also bind to Dsl1p since anti-Dsl1 antibody alone gave already a weak signal with peptides derived from this region. […] To this resin we applied crude extract of E. coli cells producing a chimeric protein consisting of GST and the δ-COP binding domain (GST-L4, "WxW"; L4 = D-type-polypeptide; SED ID NO 1 ([…]-NIDDEEEKT)). After washing thoroughly, bound proteins were eluted and analyzed by SDS-PAGE followed by Coomassie staining. […]
To analyze the Ds11p binding region within the Ret2 protein overlapping 13-mer peptides (overlap 10 residues each) spanning the region between residue 191 and 302 were directly synthesized on a cellulose membrane (Jerini; Berlin, Germany). […] After 2 h incubation with purified GST-Ds11p in blocking buffer, the membrane was washed three times with Tris/HCl-buffer and bound GST-Ds11p was detected by using α-Dsl1p antibodies and the ECL detection system (AmershamPharmaciaBiotech).

The target of assay [2] is T2, GST-Dsl1p (S. cerevisiae (yeast), UniProt P53847 1-754).
T2 construct: Made in E. coli and immobilised on glutathione-Sepharose 4B; also called GST-tagged Dsl1p; full length GST-Dsl1p; not shown: glutathione S-transferase (GST) encoded by pGEX-TT (pGEX-2T with modified polylinker); placement and linker residues not
T2 sequence (looked up): T1 sequence (P53847 1-754)
Nature of the assay: peptide spot overlay on cellulose membrane, detected with anti-Dsl1p antibodies.

As to “R-type-peptide: peptide representing residues 242 to 254 of δ-COP, RAGHSATGGMKLG”, the “signal of bound GST-Dsl1p” value in the assay with GST-Dsl1p [1] was “strongest signal”.

B1: 13-mer peptide representing residues 242 to 254 of δ-COP, synthesized on a cellulose membrane (peptide)
peptide: RAGHSATGGMKLG
notes: A spot on a peptide array of 13-mers that overlap by 10 residues and span aa 191-302; also called R-type-peptide
With B1, the binding result with GST-Dsl1p [2] is “binds”.

The record behind these values is patent EP1396498A1, “A pair of polypeptides with specific and strong interaction” (Max-Planck-Gesellschaft zur Förderung der Wissenschaften …, priority 2002, dated 2004).
